Data published in patent WO2015087187A1 (dated 2015).

T1: recombinant human SOST (rhSOST) (human, UniProt Q9BQB4 24-213)
T1 construct: Treated as one molecule; also called recombinant human SOST protein; human sclerostin
T1 sequence: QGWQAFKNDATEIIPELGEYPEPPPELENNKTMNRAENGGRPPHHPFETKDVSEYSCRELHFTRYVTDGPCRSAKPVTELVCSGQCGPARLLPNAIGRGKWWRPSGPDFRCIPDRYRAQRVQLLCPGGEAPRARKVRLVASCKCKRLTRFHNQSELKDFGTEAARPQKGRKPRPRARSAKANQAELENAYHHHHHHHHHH

B1: DM1 (antibody, V domains shown)
VH: EVQLLESGGGLVQPGGSLRLSCAASGHTFSDYWMQWVRQAPGKGLEWVGAIYPGDGDTRYNQKFKDRFTISRDNSKNTLYLQMNSLRAEDTAVYYCARSMDYWGQGTLVTVSS
VL: DIVMTQSPDSLAVSLGERATINCRASKTVDSYGNSFMHWFQQKPGQPPKLLIHHSSNLESGVPDRFSGSGSGTDFTLTISSLQAEDVAVYYCLQTIEHPYTFGQGTKLEIK
notes: also called mH10/mL4
B2: DM16 (antibody, V domains shown)
VH: EVQLLESGGGLVQPGGSLRLSCAASGHTFTDYWMQWVRQAPGKGLEWIGAIYPGDGDTRYNQKFKDRFTISRDNSKNTLYLQMNSLRAEDTAVYYCARSMDYWGQGTLVTVSS
VL: DIVMTQSPDSLAVSLGERATINCRASKTVDSYGNSFMHWFQQKPGQPPKLLIHHSSNLESGVPDRFSGSGSGTDFTLTISSLQAEDVAVYYCLQTIEDHYTFGQGTKLEIK
notes: also called wt/mL5
B3: DM17 (antibody, V domains shown)
VH: EVQLLESGGGLVQPGGSLRLSCAASGHTFTDYWMQWVRQAPGKGLEWIGAIYPGDGDTRYNQKFKDRFTISRDNSKNTLYLQMNSLRAEDTAVYYCARSMDYWGQGTLVTVSS
VL: DIVMTQSPDSLAVSLGERATINCRASKTVDSYGNSFMHWFQQKPGQPPKLLIHHSSNLESGVPDRFSGSGSGTDFTLTISSLQAEDVAVYYCLQTIEDSYTFGQGTKLEIK
notes: also called wt/mL6
B4: DM2 (antibody, V domains shown)
VH: EVQLLESGGGLVQPGGSLRLSCAASGHTFSDYWMQWVRQAPGKGLEWVGAIYPGDGDTRYNQKFKDRFTISRDNSKNTLYLQMNSLRAEDTAVYYCARSMDYWGQGTLVTVSS
VL: DIVMTQSPDSLAVSLGERATINCRASKTVDSYGNSFMHWFQQKPGQPPKLLIYHSSNLESGVPDRFSGSGSGTDFTLTISSLQAEDVAVYYCLQTIEHPYTFGQGTKLEIK
notes: also called mH10/mL14
B5: DM20 (antibody, V domains shown)
VH: EVQLLESGGGLVQPGGSLRLSCAASGHTFSDYWMQWVRQAPGKGLEWIGAIYPGDGDTRYNQKFKDRFTISRDNSKNTLYLQMNSLRAEDTAVYYCARSMDYWGQGTLVTVSS
VL: DIVMTQSPDSLAVSLGERATINCRASKTVDSYGNSFMHWFQQKPGQPPKLLIHHSSNLESGVPDRFSGSGSGTDFTLTISSLQAEDVAVYYCLQTIEDPYTFGQGTKLEIK
notes: also called mH1/wt
B6: DM13 (antibody, V domains shown)
VH: EVQLLESGGGLVQPGGSLRLSCAASGHTFTDYWMQWVRQAPGKGLEWIGAIYPGDGDTRYNQKFKDRFTISRDNSKNTLYLQMNSLRAEDTAVYYCARSMDYWGQGTLVTVSS
VL: DIVMTQSPDSLAVSLGERATINCRASKTVDSYGNSFMHWFQQKPGQPPKLLIYHSSNLESGVPDRFSGSGSGTDFTLTISSLQAEDVAVYYCLQTIEDPYTFGQGTKLEIK
notes: also called wt/mL2
B7: DM7 (antibody, V domains shown)
VH: EVQLLESGGGLVQPGGSLRLSCAASGFTFSDYWMQWVRQAPGKGLEWVGAIYPGDGDTRYNQKFKDRFTISRDNSKNTLYLQMNSLRAEDTAVYYCARSMDYWGQGTLVTVSS
VL: DIVMTQSPDSLAVSLGERATINCRASKTVDSYGNSFMHWFQQKPGQPPKLLIYHSSNLESGVPDRFSGSGSGTDFTLTISSLQAEDVAVYYCLQTIEHPYTFGQGTKLEIK
notes: also called mH11/mL14
B8: DM8 (antibody, V domains shown)
VH: EVQLLESGGGLVQPGGSLRLSCAASGFTFSDYWMQWVRQAPGKGLEWVGAIYPGDGDTRYNQKFKDRFTISRDNSKNTLYLQMNSLRAEDTAVYYCARSMDYWGQGTLVTVSS
VL: DIVMTQSPDSLAVSLGERATINCRASKTVDSYGNSFMHWYQQKPGQPPKLLIYHSSNLESGVPDRFSGSGSGTDFTLTISSLQAEDVAVYYCLQTIEFPYTFGQGTKLEIK
notes: also called mH11/mL17
B9: DM22 (antibody, V domains shown)
VH: EVQLLESGGGLVQPGGSLRLSCAASGFTFTDYWMQWVRQAPGKGLEWIGAIYPGDGDTRYNQKFKDRFTISRDNSKNTLYLQMNSLRAEDTAVYYCARSMDYWGQGTLVTVSS
VL: DIVMTQSPDSLAVSLGERATINCRASKTVDSYGNSFMHWFQQKPGQPPKLLIHHSSNLESGVPDRFSGSGSGTDFTLTISSLQAEDVAVYYCLQTIEDPYTFGQGTKLEIK
notes: also called mH2/wt
B10: DM15 (antibody, V domains shown)
VH: EVQLLESGGGLVQPGGSLRLSCAASGHTFTDYWMQWVRQAPGKGLEWIGAIYPGDGDTRYNQKFKDRFTISRDNSKNTLYLQMNSLRAEDTAVYYCARSMDYWGQGTLVTVSS
VL: DIVMTQSPDSLAVSLGERATINCRASKTVDSYGNSFMHWFQQKPGQPPKLLIHHSSNLESGVPDRFSGSGSGTDFTLTISSLQAEDVAVYYCLQTIEHPYTFGQGTKLEIK
notes: also called wt/mL4
B11: DM11 (antibody, V domains shown)
VH: EVQLLESGGGLVQPGGSLRLSCAASGHTFTDYWMQWVRQAPGKGLEWIGAIYPGDGDTRYNQKFKDRFTISRDNSKNTLYLQMNSLRAEDTAVYYCARSMDYWGQGTLVTVSS
VL: DIVMTQSPDSLAVSLGERATINCRASKTVDSYGNSFMHWFQQKPGQPPKLLIHHSSNLESGVPDRFSGSGSGTDFTLTISSLQAEDVAVYYCLQTIEDPYTFGQGTKLEIK
notes: also called wt/wt
B12: DM12 (antibody, V domains shown)
VH: EVQLLESGGGLVQPGGSLRLSCAASGHTFTDYWMQWVRQAPGKGLEWIGAIYPGDGDTRYNQKFKDRFTISRDNSKNTLYLQMNSLRAEDTAVYYCARSMDYWGQGTLVTVSS
VL: DIVMTQSPDSLAVSLGERATINCRASKTVDSYGNSFMHWYQQKPGQPPKLLIHHSSNLESGVPDRFSGSGSGTDFTLTISSLQAEDVAVYYCLQTIEDPYTFGQGTKLEIK
notes: also called wt/mL1
B13: DM19 (antibody, V domains shown)
VH: EVQLLESGGGLVQPGGSLRLSCAASGHTFTDYWMQWVRQAPGKGLEWIGAIYPGDGDTRYNQKFKDRFTISRDNSKNTLYLQMNSLRAEDTAVYYCARSMDYWGQGTLVTVSS
VL: DIVMTQSPDSLAVSLGERATINCRASKTVDSYGNSFMHWFQQKPGQPPKLLIHHSSNLESGVPDRFSGSGSGTDFTLTISSLQAEDVAVYYCLQTIEFHYTFGQGTKLEIK
notes: also called wt/mL10
B14: DM3 (antibody, V domains shown)
VH: EVQLLESGGGLVQPGGSLRLSCAASGHTFSDYWMQWVRQAPGKGLEWVGAIYPGDGDTRYNQKFKDRFTISRDNSKNTLYLQMNSLRAEDTAVYYCARSMDYWGQGTLVTVSS
VL: DIVMTQSPDSLAVSLGERATINCRASKTVDSYGNSFMHWYQQKPGQPPKLLIYHSSNLESGVPDRFSGSGSGTDFTLTISSLQAEDVAVYYCLQTIEHPYTFGQGTKLEIK
notes: also called mH10/mL15
B15: DM6 (antibody, V domains shown)
VH: EVQLLESGGGLVQPGGSLRLSCAASGHTFSDYWMQWVRQAPGKGLEWVGAIYPGDGDTRYNQKFKDRFTISRDNSKNTLYLQMNSLRAEDTAVYYCARSMDYWGQGTLVTVSS
VL: DIVMTQSPDSLAVSLGERATINCRASKTVDSYGNSFMHWYQQKPGQPPKLLIYHSSNLESGVPDRFSGSGSGTDFTLTISSLQAEDVAVYYCLQTIEFPYTFGQGTKLEIK
notes: also called mH10/mL17
B16: DM18 (antibody, V domains shown)
VH: EVQLLESGGGLVQPGGSLRLSCAASGHTFTDYWMQWVRQAPGKGLEWIGAIYPGDGDTRYNQKFKDRFTISRDNSKNTLYLQMNSLRAEDTAVYYCARSMDYWGQGTLVTVSS
VL: DIVMTQSPDSLAVSLGERATINCRASKTVDSYGNSFMHWFQQKPGQPPKLLIHHSSNLESGVPDRFSGSGSGTDFTLTISSLQAEDVAVYYCLQTIDEPYTFGQGTKLEIK
notes: also called wt/mL8
B17: DM9 (antibody, V domains shown)
VH: EVQLLESGGGLVQPGGSLRLSCAASGHTFSDYWMQWVRQAPGKGLEWVGAIYPGDGDTRYNQKFKDRFTISRDNSKNTLYLQMNSLRAEDTAVYYCARSMDYWGQGTLVTVSS
VL: DIVMTQSPDSLAVSLGERATINCRASKTVDSYGSNFMHWYQQKPGQPPKLLIYHSSNLESGVPDRFSGSGSGTDFTLTISSLQAEDVAVYYCLQTIEHPYTFGQGTKLEIK
notes: also called mH10/mL18
B18: DM5 (antibody, V domains shown)
VH: EVQLLESGGGLVQPGGSLRLSCAASGHTFSDYWMQWVRQAPGKGLEWVGAIYPGDGDTRYNQKFKDRFTISRDNSKNTLYLQMNSLRAEDTAVYYCARSMDYWGQGTLVTVSS
VL: DIVMTQSPDSLAVSLGERATINCRASKTVDSYGNSFMHWFQQKPGQPPKLLIYHSSNLESGVPDRFSGSGSGTDFTLTISSLQAEDVAVYYCLQTIEFPYTFGQGTKLEIK
notes: also called mH10/mL16
B19: DM14 (antibody, V domains shown)
VH: EVQLLESGGGLVQPGGSLRLSCAASGHTFTDYWMQWVRQAPGKGLEWIGAIYPGDGDTRYNQKFKDRFTISRDNSKNTLYLQMNSLRAEDTAVYYCARSMDYWGQGTLVTVSS
VL: DIVMTQSPDSLAVSLGERATINCRASKTVDSYGNSFMHWYQQKPGQPPKLLIYHSSNLESGVPDRFSGSGSGTDFTLTISSLQAEDVAVYYCLQTIEDPYTFGQGTKLEIK
notes: also called wt/mL3

Molecular target: T1, recombinant human SOST (rhSOST)
Experiment: SPR Biacore T200, IgG captured via anti-human Fc, rhSOST analyte, 37 C

First: B1
Second: B2
The Kd of the first is 2.7-fold higher: 0.566 nM for the first, 0.207 nM for the second.

First: B3
Second: B4
The Kd of the first is 7.3-fold lower: 0.044 nM for the first, 0.321 nM for the second. The first binds more tightly here.

Compared with B5, B6 is lower in Kd: 0.015 nM for the first, less than 0.0016 nM for the second.

Going from B7 to B8, the Kd rises from 0.966 nM to 2.93 nM (3-fold).

First: B9
Second: B10
The Kd of the first is 5.3-fold lower: 0.015 nM for the first, 0.08 nM for the second.

Going from B11 to B12, the Kd rises from less than 0.0016 nM to 0.009 nM. The first binds more tightly here.

First: B13
Second: B14
The Kd of the first is 19-fold lower: 0.096 nM for the first, 1.84 nM for the second.

Going from B15 to B16, the Kd falls from 1.18 nM to 0.179 nM (6.6-fold). The second binds more tightly here.

Compared with B17, B18 is 12-fold lower in Kd: 2.32 nM for the first, 0.193 nM for the second. The second binds more tightly here.

B19 gave a Kd of 0.016 nM.

B1 and B2 are within 1.5-fold of each other in koff: 0.000741 s⁻¹ for the first, 0.000817 s⁻¹ for the second.

Going from B3 to B4, the koff rises from 0.000207 s⁻¹ to 0.000797 s⁻¹ (3.9-fold).

Compared with B5, B6 is lower in koff: 0.00012 s⁻¹ for the first, less than 2.8e-05 s⁻¹ for the second.

First: B7
Second: B8
The koff of the first is 1.7-fold lower: 0.00402 s⁻¹ for the first, 0.007 s⁻¹ for the second.

Going from B9 to B10, the koff rises from 0.000152 s⁻¹ to 0.000297 s⁻¹ (2-fold).

First: B11
Second: B12
The koff of the first is lower: less than 2.8e-05 s⁻¹ for the first, 5.62e-05 s⁻¹ for the second.

Compared with B13, B14 is 7.3-fold higher in koff: 0.000388 s⁻¹ for the first, 0.00285 s⁻¹ for the second.

Going from B15 to B16, the koff falls from 0.00251 s⁻¹ to 0.00104 s⁻¹ (2.4-fold).

First: B17
Second: B18
The koff of the first is 5.8-fold higher: 0.00434 s⁻¹ for the first, 0.000754 s⁻¹ for the second.

In the case of B19, the koff is reported as 8.31e-05 s⁻¹.

In order of rising kon:
1. B1  1.31e+06 M⁻¹ s⁻¹
2. B14  1.55e+06 M⁻¹ s⁻¹
3. B17  1.87e+06 M⁻¹ s⁻¹
4. B15  2.12e+06 M⁻¹ s⁻¹
5. B8  2.39e+06 M⁻¹ s⁻¹
6. B4  2.48e+06 M⁻¹ s⁻¹
7. B10  3.72e+06 M⁻¹ s⁻¹
8. B18  3.91e+06 M⁻¹ s⁻¹
9. B2  3.94e+06 M⁻¹ s⁻¹
10. B13  4.06e+06 M⁻¹ s⁻¹
11. B7  4.16e+06 M⁻¹ s⁻¹
12. B3  4.7e+06 M⁻¹ s⁻¹
13. B19  5.22e+06 M⁻¹ s⁻¹
14. B16  5.81e+06 M⁻¹ s⁻¹
15. B12  6.55e+06 M⁻¹ s⁻¹
16. B5  7.83e+06 M⁻¹ s⁻¹
17. B9  1.04e+07 M⁻¹ s⁻¹
18. B11  1.7e+07 M⁻¹ s⁻¹
19. B6  1.72e+07 M⁻¹ s⁻¹
